B1: RAB11A (parent)
chain: AVPTDEARAFAEKNGLSFIETSAL
B2: KRT71 (parent)
chain: ELRNVQDVVEDYKKRYEEEINKRT
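Also: lentivirally expressed fusions sorted by FACS into six bins by GFP to DsRed ratio, PSI derived from sequencing read proportions per bin multiplied by bin number.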

The variants in one data set derive from B1. In words: protein stability index of a GFP-peptide fusion (GPS, HEK-293T) (PSI 1-6); higher = more stable. Conditions: c terminus: a fixed tail appended.
Take AVPTDEARAFAEKNGLSFIETSAS [L24S]: the protein stability index turned out to be 4.39. As to AVPTDEARAFAEKNGLSFIETSAR [L24R], the protein stability index is 2.63.

Take AVPTDEARAFAEKNGLSFIETSAN [L24N]: the protein stability index was determined as 4.47. Still for that read-out and setting: then AVPTDEARAFAEKNGLSFIETSAQ [L24Q], with 3.47. For the variant AVPTDEARAFAEKNGLSFIETSAV [L24V], the protein stability index was found to be 3.31. Still for that read-out and setting: then AVPTDEARAFAEKNGLSFIETSAT [L24T], with 3.98; and AVPTDEARAFAEKNGLSFIETSAY [L24Y], with 3.04; and AVPTDEARAFAEKNGLSFIETSAP [L24P], with 4.62. On the same count and under the same terms, then AVPTDEARAFAEKNGLSFIETSAW [L24W], with 2.72.

Variants of B2 are the subject of a further data set. The data set is described as above. The conditions noted are these: c terminus: a fixed tail appended.
As for ELRYVQDVVEDYKKRYEEEINKRT [N4Y], the protein stability index is 3.59. Still for that read-out and setting: under ELRGVQDVVEDYKKRYEEEINKRT [N4G] stands 3.65; under ELRMVQDVVEDYKKRYEEEINKRT [N4M], 3.77.

Consider ELRKVQDVVEDYKKRYEEEINKRT [N4K], for which the protein stability index is 4.51. The same measure, in the same setting: under ELRSVQDVVEDYKKRYEEEINKRT [N4S] stands 4.32; under ELRAVQDVVEDYKKRYEEEINKRT [N4A], 4.38; under ELREVQDVVEDYKKRYEEEINKRT [N4E], 4.45.

For the variant ELRTVQDVVEDYKKRYEEEINKRT [N4T], the protein stability index stood at 4.08. Still for that read-out and setting: then ELRFVQDVVEDYKKRYEEEINKRT [N4F], with 3.11; and ELRCVQDVVEDYKKRYEEEINKRT [N4C], with 3.9; and ELRHVQDVVEDYKKRYEEEINKRT [N4H], with 4.45. With ELRIVQDVVEDYKKRYEEEINKRT [N4I], the protein stability index was found to be 4.37.

For the variant ELRWVQDVVEDYKKRYEEEINKRT [N4W], the protein stability index was found to be 3.17. Take ELRPVQDVVEDYKKRYEEEINKRT [N4P]: the protein stability index was 4.67. The same measure, in the same setting: under ELRDVQDVVEDYKKRYEEEINKRT [N4D] stands 4.68; under ELRRVQDVVEDYKKRYEEEINKRT [N4R], 4.48; under EMRNVQDVVEDYKKRYEEEINKRT [L2M], 3.99.

As to EPRNVQDVVEDYKKRYEEEINKRT [L2P], the protein stability index worked out at 4.96. Still for that read-out and setting: under EGRNVQDVVEDYKKRYEEEINKRT [L2G] stands 5.65. Still for that read-out and setting: then EARNVQDVVEDYKKRYEEEINKRT [L2A], with 5.76; and EDRNVQDVVEDYKKRYEEEINKRT [L2D], with 5.94; and ESRNVQDVVEDYKKRYEEEINKRT [L2S], with 5.01.

In the case of ENRNVQDVVEDYKKRYEEEINKRT [L2N], the protein stability index came to 5.02. On the same count and under the same terms, under ECRNVQDVVEDYKKRYEEEINKRT [L2C] stands 3.53.

As for ELRNVQCVVEDYKKRYEEEINKRT [D7C], the protein stability index was 3.35.

Turning to ELRNVQAVVEDYKKRYEEEINKRT [D7A], the protein stability index amounted to 3.68. As to ELRNVQMVVEDYKKRYEEEINKRT [D7M], the protein stability index came out at 3.35.

As for ELRNVQPVVEDYKKRYEEEINKRT [D7P], the protein stability index amounted to 3.17. On the same count and under the same terms, under ELRNVQLVVEDYKKRYEEEINKRT [D7L] stands 3.54; under ELRNVQIVVEDYKKRYEEEINKRT [D7I], 2.62; under ELRNVQFVVEDYKKRYEEEINKRT [D7F], 3.28. Turning to ELRNVQHVVEDYKKRYEEEINKRT [D7H], the protein stability index was determined as 3.13. As for ELRNVQEVVEDYKKRYEEEINKRT [D7E], the protein stability index worked out at 3.1. Same read-out and setting: then ELRNVQKVVEDYKKRYEEEINKRT [D7K], with 3.28. The same measure, in the same setting: under ELRNVQNVVEDYKKRYEEEINKRT [D7N] stands 3.36. On the same count and under the same terms, then ELMNVQDVVEDYKKRYEEEINKRT [R3M], with 4.14; and ELLNVQDVVEDYKKRYEEEINKRT [R3L], with 2.37. With ELFNVQDVVEDYKKRYEEEINKRT [R3F], the protein stability index was determined as 4.32. Still for that read-out and setting: then ELTNVQDVVEDYKKRYEEEINKRT [R3T], with 3.35; and ELENVQDVVEDYKKRYEEEINKRT [R3E], with 4.15; and ELQNVQDVVEDYKKRYEEEINKRT [R3Q], with 4.13.

For the variant ELHNVQDVVEDYKKRYEEEINKRT [R3H], the protein stability index turned out to be 2.78. In the case of ELPNVQDVVEDYKKRYEEEINKRT [R3P], the protein stability index is 4.1. In the case of ELYNVQDVVEDYKKRYEEEINKRT [R3Y], the protein stability index came to 3.86. ELWNVQDVVEDYKKRYEEEINKRT [R3W]: the protein stability index came out at 3.47. The same measure, in the same setting: under ELRNVGDVVEDYKKRYEEEINKRT [Q6G] stands 3.36. On the same count and under the same terms, then ELRNVTDVVEDYKKRYEEEINKRT [Q6T], with 3.4; and ELRNVHDVVEDYKKRYEEEINKRT [Q6H], with 3.15. For ELRNVPDVVEDYKKRYEEEINKRT [Q6P], the protein stability index stood at 4.41. Still for that read-out and setting: under ELRNVKDVVEDYKKRYEEEINKRT [Q6K] stands 3.75; under ELRNVCDVVEDYKKRYEEEINKRT [Q6C], 2.77; under ELRNVSDVVEDYKKRYEEEINKRT [Q6S], 4.01. For the variant ELRNVIDVVEDYKKRYEEEINKRT [Q6I], the protein stability index worked out at 2.54.

On to ELRNVADVVEDYKKRYEEEINKRT [Q6A], for which the protein stability index worked out at 3.85. With ELRNVMDVVEDYKKRYEEEINKRT [Q6M], the protein stability index is 3.14. The same measure, in the same setting: then ELRNVFDVVEDYKKRYEEEINKRT [Q6F], with 4.1; and ELRNVWDVVEDYKKRYEEEINKRT [Q6W], with 3.41. The same measure, in the same setting: under ELRNVNDVVEDYKKRYEEEINKRT [Q6N] stands 4.58. The same measure, in the same setting: under ELRNVYDVVEDYKKRYEEEINKRT [Q6Y] stands 3.18; under ELRNWQDVVEDYKKRYEEEINKRT [V5W], 3.7; under ELRNHQDVVEDYKKRYEEEINKRT [V5H], 4.37. As to ELRNRQDVVEDYKKRYEEEINKRT [V5R], the protein stability index was 3.22.

For the variant ELRNCQDVVEDYKKRYEEEINKRT [V5C], the protein stability index is 3.98. In the case of ELRNFQDVVEDYKKRYEEEINKRT [V5F], the protein stability index stood at 3.38. On the same count and under the same terms, then ELRNQQDVVEDYKKRYEEEINKRT [V5Q], with 4.24. For ELRNMQDVVEDYKKRYEEEINKRT [V5M], the protein stability index came to 3.87. Still for that read-out and setting: under ELRNPQDVVEDYKKRYEEEINKRT [V5P] stands 5.56; under ELRNYQDVVEDYKKRYEEEINKRT [V5Y], 3.64; under ELRNIQDVVEDYKKRYEEEINKRT [V5I], 3.88. The same measure, in the same setting: then ELRNAQDVVEDYKKRYEEEINKRT [V5A], with 3.8. For ELRNGQDVVEDYKKRYEEEINKRT [V5G], the protein stability index turned out to be 3.92. Same read-out and setting: then ELRNEQDVVEDYKKRYEEEINKRT [V5E], with 4.43; and ELRNKQDVVEDYKKRYEEEINKRT [V5K], with 3.75. Still for that read-out and setting: then ELRNNQDVVEDYKKRYEEEINKRT [V5N], with 3.59. Still for that read-out and setting: under ELRNDQDVVEDYKKRYEEEINKRT [V5D] stands 4.58; under ELRNSQDVVEDYKKRYEEEINKRT [V5S], 4.01; under FLRNVQDVVEDYKKRYEEEINKRT [E1F], 4.14. As for NLRNVQDVVEDYKKRYEEEINKRT [E1N], the protein stability index is 3.49. The same measure, in the same setting: then KLRNVQDVVEDYKKRYEEEINKRT [E1K], with 3.95; and GLRNVQDVVEDYKKRYEEEINKRT [E1G], with 2.72. Same read-out and setting: under HLRNVQDVVEDYKKRYEEEINKRT [E1H] stands 4.05; under QLRNVQDVVEDYKKRYEEEINKRT [E1Q], 4.03; under LLRNVQDVVEDYKKRYEEEINKRT [E1L], 3.9. On to CLRNVQDVVEDYKKRYEEEINKRT [E1C], for which the protein stability index is 2.23. Same read-out and setting: then SLRNVQDVVEDYKKRYEEEINKRT [E1S], with 4.07.

The record behind these values is the supplement of paper PMC10567573.
